The target in this assay is T1, calpain-2 (Homo sapiens, UniProt P17655).
T1 sequence (P17655 1-700): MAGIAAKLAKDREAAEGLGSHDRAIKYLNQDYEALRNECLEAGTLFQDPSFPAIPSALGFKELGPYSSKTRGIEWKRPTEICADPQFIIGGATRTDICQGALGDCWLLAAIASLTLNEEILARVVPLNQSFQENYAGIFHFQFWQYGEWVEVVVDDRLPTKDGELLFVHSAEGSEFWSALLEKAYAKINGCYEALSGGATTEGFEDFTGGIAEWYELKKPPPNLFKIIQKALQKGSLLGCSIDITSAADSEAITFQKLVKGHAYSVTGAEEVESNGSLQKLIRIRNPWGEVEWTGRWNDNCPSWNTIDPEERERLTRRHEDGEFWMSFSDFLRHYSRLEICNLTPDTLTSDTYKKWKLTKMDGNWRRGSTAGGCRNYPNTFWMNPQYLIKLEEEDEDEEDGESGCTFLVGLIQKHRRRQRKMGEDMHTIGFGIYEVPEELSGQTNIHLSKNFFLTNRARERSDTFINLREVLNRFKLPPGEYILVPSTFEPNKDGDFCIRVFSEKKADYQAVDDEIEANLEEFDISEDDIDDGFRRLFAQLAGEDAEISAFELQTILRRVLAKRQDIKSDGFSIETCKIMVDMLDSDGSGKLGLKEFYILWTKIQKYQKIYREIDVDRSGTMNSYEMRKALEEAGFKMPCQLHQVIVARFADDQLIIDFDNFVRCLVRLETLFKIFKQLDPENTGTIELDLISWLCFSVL
T1 sequence (P04632 1-268 partner): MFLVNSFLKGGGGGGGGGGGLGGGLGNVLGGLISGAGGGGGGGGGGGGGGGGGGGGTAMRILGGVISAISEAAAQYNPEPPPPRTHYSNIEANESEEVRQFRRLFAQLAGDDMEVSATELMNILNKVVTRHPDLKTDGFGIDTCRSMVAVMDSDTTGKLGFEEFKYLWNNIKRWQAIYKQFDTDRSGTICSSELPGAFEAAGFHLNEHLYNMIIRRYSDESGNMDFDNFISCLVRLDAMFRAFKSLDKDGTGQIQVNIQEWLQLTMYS
Briefly: in vitro calpain-2 inhibition, succinic-Leu-Tyr-AMC substrate. Type of assay: biochemical. To be noted: selectivity calpain-2 over calpain-1. How it is done:
Formula 1, where chiral center 1 is the L-form and chiral center 2 is a racemic mixture of D- and L- in this example was introduced at various concentrations (from 1 nM to 10 μM) into an in vitro mix comprising succinic-Leu-Tyr-AMC and calpain-1 or calpain-2 (Sasaki et al, 1984), and the kinetics of the loss of fluorescence were determined for each of the calpains (Powers et al, 2000). […] Therefore, the assessment of selectivity described herein was different than the prior teaching.
Formula 1A, where chiral center 1 is the S-form and chiral center 2 is the S-form was separated from the S-R-form (Formula 1B) using methods that are well-known methods for separating diastereoisomers. Formula 1A, which is also referred to herein as compound 18A, in this example was introduced at various concentrations into an in vitro mix comprising succinic-Leu-Tyr-AMC and μ-calpain or m-calpain (Sasaki et al, 1984), and the kinetics of the loss of fluorescence were determined for each of the calpains.

B1: Stargazin gamma-2: protein involved in AMPA receptor trafficking, calpain-2 specific substrate; cytoplasmic C-terminus (protein, UniProt Q9Y698 1-323, looked up)
Voltage-dependent calcium …: MGLFDRGVQMLLTTVGAFAAFSLMTIAVGTDYWLYSRGVCKTKSVSENETSKKNEEVMTHSGLWRTCCLEGNFKGLCKQIDHFPEDADYEADTAEYFLRAVRASSIFPILSVILLFMGGLCIAASEFYKTRHNIILSAGIFFVSAGLSNIIGIIVYISANAGDPSKSDSKKNSYSYGWSFYFGALSFIIAEMVGVLAVHMFIDRHKQLRATARATDYLQASAITRIPSYRYRYQRRSRSSSRSTEPSHSRDASPVGIKGFNTLPSTEISMYTLSRDPLKAATTPTATYNSDRDNSFLQVHNCIQKENKDSLHSNTANRRTTPV
As for B1, the “inhibits calpain-2 more than calpain-1 (Ki lower for calpain-2)” value is recorded as “approximately 100 fold”.

These data come from patent publication US20190030114A1, “ISOFORM-SPECIFIC CALPAIN INHIBITORS, METHODS OF IDENTIFICATION, AND USES THEREOF” (WESTERN UNIVERSITY OF HEALTH SCIENCES, priority 2014, published 2019).
